Data from patent US20110118447A1.

Experiments:
[1] = molecular target: binding partner (antigen) of C5A (XPA23); experiment: Biacore, K-off, fold vs original
[2] = molecular target: binding partner of C5A (XPA23); experiment: Biacore

Row | fold difference in affinity vs original [1] [fold] | fold difference in affinity vs original [2] [fold] | fold affinity vs original [2] [fold] | Binder
1 | 0.1 | 0.1 | – | C5A (XPA23) VH Y107G (antibody, V domains shown) VH: EVQLLESGGGLVQPGGSLRLSCAASGFTFSKYFMFWVRQAPGKGLEWVSVISPSGGMTRYADSVKGRFTISRDNSKNTLYLQMNSLRAEDTAVYYCARVGYGGNSDGWGQGTLVTVSS VL: DIQMTQSPSSVSASVGDRLTIICRASQDINRWLAWYQQTPGNAPKLLIHSATSLQSGVPSRFSGSGSGTDFTLTINSLQPEDFATYYCQQADSFPLTFGGGTKVEIK
2 | 0.93 | 0.93 | – | C5A (XPA23) VH Y107V (antibody, V domains shown) VH: EVQLLESGGGLVQPGGSLRLSCAASGFTFSKYFMFWVRQAPGKGLEWVSVISPSGGMTRYADSVKGRFTISRDNSKNTLYLQMNSLRAEDTAVYYCARVGYGGNSDVWGQGTLVTVSS VL: DIQMTQSPSSVSASVGDRLTIICRASQDINRWLAWYQQTPGNAPKLLIHSATSLQSGVPSRFSGSGSGTDFTLTINSLQPEDFATYYCQQADSFPLTFGGGTKVEIK
3 | 0.96 | 0.96 | – | C5A (XPA23) VH Y107I (antibody, V domains shown) VH: EVQLLESGGGLVQPGGSLRLSCAASGFTFSKYFMFWVRQAPGKGLEWVSVISPSGGMTRYADSVKGRFTISRDNSKNTLYLQMNSLRAEDTAVYYCARVGYGGNSDIWGQGTLVTVSS VL: DIQMTQSPSSVSASVGDRLTIICRASQDINRWLAWYQQTPGNAPKLLIHSATSLQSGVPSRFSGSGSGTDFTLTINSLQPEDFATYYCQQADSFPLTFGGGTKVEIK
4 | 0.83 | 0.83 | – | C5A (XPA23) VH Y107A (antibody, V domains shown) VH: EVQLLESGGGLVQPGGSLRLSCAASGFTFSKYFMFWVRQAPGKGLEWVSVISPSGGMTRYADSVKGRFTISRDNSKNTLYLQMNSLRAEDTAVYYCARVGYGGNSDAWGQGTLVTVSS VL: DIQMTQSPSSVSASVGDRLTIICRASQDINRWLAWYQQTPGNAPKLLIHSATSLQSGVPSRFSGSGSGTDFTLTINSLQPEDFATYYCQQADSFPLTFGGGTKVEIK
5 | 0.86 | 0.86 | – | C5A (XPA23) VH Y107L (antibody, V domains shown) VH: EVQLLESGGGLVQPGGSLRLSCAASGFTFSKYFMFWVRQAPGKGLEWVSVISPSGGMTRYADSVKGRFTISRDNSKNTLYLQMNSLRAEDTAVYYCARVGYGGNSDLWGQGTLVTVSS VL: DIQMTQSPSSVSASVGDRLTIICRASQDINRWLAWYQQTPGNAPKLLIHSATSLQSGVPSRFSGSGSGTDFTLTINSLQPEDFATYYCQQADSFPLTFGGGTKVEIK
6 | 0.9 | – | 0.9 | C5A (XPA23) VH Y107F (antibody, V domains shown) VH: EVQLLESGGGLVQPGGSLRLSCAASGFTFSKYFMFWVRQAPGKGLEWVSVISPSGGMTRYADSVKGRFTISRDNSKNTLYLQMNSLRAEDTAVYYCARVGYGGNSDFWGQGTLVTVSS VL: DIQMTQSPSSVSASVGDRLTIICRASQDINRWLAWYQQTPGNAPKLLIHSATSLQSGVPSRFSGSGSGTDFTLTINSLQPEDFATYYCQQADSFPLTFGGGTKVEIK
7 | 0.89 | – | 0.89 | C5A (XPA23) VH Y107W (antibody, V domains shown) VH: EVQLLESGGGLVQPGGSLRLSCAASGFTFSKYFMFWVRQAPGKGLEWVSVISPSGGMTRYADSVKGRFTISRDNSKNTLYLQMNSLRAEDTAVYYCARVGYGGNSDWWGQGTLVTVSS VL: DIQMTQSPSSVSASVGDRLTIICRASQDINRWLAWYQQTPGNAPKLLIHSATSLQSGVPSRFSGSGSGTDFTLTINSLQPEDFATYYCQQADSFPLTFGGGTKVEIK
8 | 0.04 | 0.04 | – | C5A (XPA23) VH Y107P (antibody, V domains shown) VH: EVQLLESGGGLVQPGGSLRLSCAASGFTFSKYFMFWVRQAPGKGLEWVSVISPSGGMTRYADSVKGRFTISRDNSKNTLYLQMNSLRAEDTAVYYCARVGYGGNSDPWGQGTLVTVSS VL: DIQMTQSPSSVSASVGDRLTIICRASQDINRWLAWYQQTPGNAPKLLIHSATSLQSGVPSRFSGSGSGTDFTLTINSLQPEDFATYYCQQADSFPLTFGGGTKVEIK

Further lines, the binder ahead of its results:

Row | Binder | fold difference in affinity vs original [1] [fold] | fold difference in affinity vs original [2] [fold] | fold affinity vs original [2] [fold]
9 | C5A (XPA23) VH G103V (antibody, V domains shown) VH: EVQLLESGGGLVQPGGSLRLSCAASGFTFSKYFMFWVRQAPGKGLEWVSVISPSGGMTRYADSVKGRFTISRDNSKNTLYLQMNSLRAEDTAVYYCARVGYGVNSDYWGQGTLVTVSS VL: DIQMTQSPSSVSASVGDRLTIICRASQDINRWLAWYQQTPGNAPKLLIHSATSLQSGVPSRFSGSGSGTDFTLTINSLQPEDFATYYCQQADSFPLTFGGGTKVEIK | 2.56 | 2.56 | –
10 | C5A (XPA23) VH S105A (antibody, V domains shown) VH: EVQLLESGGGLVQPGGSLRLSCAASGFTFSKYFMFWVRQAPGKGLEWVSVISPSGGMTRYADSVKGRFTISRDNSKNTLYLQMNSLRAEDTAVYYCARVGYGGNADYWGQGTLVTVSS VL: DIQMTQSPSSVSASVGDRLTIICRASQDINRWLAWYQQTPGNAPKLLIHSATSLQSGVPSRFSGSGSGTDFTLTINSLQPEDFATYYCQQADSFPLTFGGGTKVEIK | 0.84 | 0.84 | –
11 | C5A (XPA23) VH N104G (antibody, V domains shown) VH: EVQLLESGGGLVQPGGSLRLSCAASGFTFSKYFMFWVRQAPGKGLEWVSVISPSGGMTRYADSVKGRFTISRDNSKNTLYLQMNSLRAEDTAVYYCARVGYGGGSDYWGQGTLVTVSS VL: DIQMTQSPSSVSASVGDRLTIICRASQDINRWLAWYQQTPGNAPKLLIHSATSLQSGVPSRFSGSGSGTDFTLTINSLQPEDFATYYCQQADSFPLTFGGGTKVEIK | 1.21 | 1.21 | –
12 | C5A (XPA23) VH S105V (antibody, V domains shown) VH: EVQLLESGGGLVQPGGSLRLSCAASGFTFSKYFMFWVRQAPGKGLEWVSVISPSGGMTRYADSVKGRFTISRDNSKNTLYLQMNSLRAEDTAVYYCARVGYGGNVDYWGQGTLVTVSS VL: DIQMTQSPSSVSASVGDRLTIICRASQDINRWLAWYQQTPGNAPKLLIHSATSLQSGVPSRFSGSGSGTDFTLTINSLQPEDFATYYCQQADSFPLTFGGGTKVEIK | 0.08 | 0.08 | –
13 | C5A (XPA23) VH S105G (antibody, V domains shown) VH: EVQLLESGGGLVQPGGSLRLSCAASGFTFSKYFMFWVRQAPGKGLEWVSVISPSGGMTRYADSVKGRFTISRDNSKNTLYLQMNSLRAEDTAVYYCARVGYGGNGDYWGQGTLVTVSS VL: DIQMTQSPSSVSASVGDRLTIICRASQDINRWLAWYQQTPGNAPKLLIHSATSLQSGVPSRFSGSGSGTDFTLTINSLQPEDFATYYCQQADSFPLTFGGGTKVEIK | 0.12 | 0.12 | –
14 | C5A (XPA23) VH N104L (antibody, V domains shown) VH: EVQLLESGGGLVQPGGSLRLSCAASGFTFSKYFMFWVRQAPGKGLEWVSVISPSGGMTRYADSVKGRFTISRDNSKNTLYLQMNSLRAEDTAVYYCARVGYGGLSDYWGQGTLVTVSS VL: DIQMTQSPSSVSASVGDRLTIICRASQDINRWLAWYQQTPGNAPKLLIHSATSLQSGVPSRFSGSGSGTDFTLTINSLQPEDFATYYCQQADSFPLTFGGGTKVEIK | 1.19 | 1.19 | –
15 | C5A (XPA23) VH S105I (antibody, V domains shown) VH: EVQLLESGGGLVQPGGSLRLSCAASGFTFSKYFMFWVRQAPGKGLEWVSVISPSGGMTRYADSVKGRFTISRDNSKNTLYLQMNSLRAEDTAVYYCARVGYGGNIDYWGQGTLVTVSS VL: DIQMTQSPSSVSASVGDRLTIICRASQDINRWLAWYQQTPGNAPKLLIHSATSLQSGVPSRFSGSGSGTDFTLTINSLQPEDFATYYCQQADSFPLTFGGGTKVEIK | 0.07 | 0.07 | –
16 | C5A (XPA23) VH D106G (antibody, V domains shown) VH: EVQLLESGGGLVQPGGSLRLSCAASGFTFSKYFMFWVRQAPGKGLEWVSVISPSGGMTRYADSVKGRFTISRDNSKNTLYLQMNSLRAEDTAVYYCARVGYGGNSGYWGQGTLVTVSS VL: DIQMTQSPSSVSASVGDRLTIICRASQDINRWLAWYQQTPGNAPKLLIHSATSLQSGVPSRFSGSGSGTDFTLTINSLQPEDFATYYCQQADSFPLTFGGGTKVEIK | 0.03 | 0.03 | –
17 | C5A (XPA23) VH N104V (antibody, V domains shown) VH: EVQLLESGGGLVQPGGSLRLSCAASGFTFSKYFMFWVRQAPGKGLEWVSVISPSGGMTRYADSVKGRFTISRDNSKNTLYLQMNSLRAEDTAVYYCARVGYGGVSDYWGQGTLVTVSS VL: DIQMTQSPSSVSASVGDRLTIICRASQDINRWLAWYQQTPGNAPKLLIHSATSLQSGVPSRFSGSGSGTDFTLTINSLQPEDFATYYCQQADSFPLTFGGGTKVEIK | 1.27 | 1.27 | –
18 | C5A (XPA23) VH N104A (antibody, V domains shown) VH: EVQLLESGGGLVQPGGSLRLSCAASGFTFSKYFMFWVRQAPGKGLEWVSVISPSGGMTRYADSVKGRFTISRDNSKNTLYLQMNSLRAEDTAVYYCARVGYGGASDYWGQGTLVTVSS VL: DIQMTQSPSSVSASVGDRLTIICRASQDINRWLAWYQQTPGNAPKLLIHSATSLQSGVPSRFSGSGSGTDFTLTINSLQPEDFATYYCQQADSFPLTFGGGTKVEIK | 1.61 | 1.61 | –
19 | C5A (XPA23) VH S105P (antibody, V domains shown) VH: EVQLLESGGGLVQPGGSLRLSCAASGFTFSKYFMFWVRQAPGKGLEWVSVISPSGGMTRYADSVKGRFTISRDNSKNTLYLQMNSLRAEDTAVYYCARVGYGGNPDYWGQGTLVTVSS VL: DIQMTQSPSSVSASVGDRLTIICRASQDINRWLAWYQQTPGNAPKLLIHSATSLQSGVPSRFSGSGSGTDFTLTINSLQPEDFATYYCQQADSFPLTFGGGTKVEIK | 1.41 | 1.41 | –
20 | C5A (XPA23) VH S105F (antibody, V domains shown) VH: EVQLLESGGGLVQPGGSLRLSCAASGFTFSKYFMFWVRQAPGKGLEWVSVISPSGGMTRYADSVKGRFTISRDNSKNTLYLQMNSLRAEDTAVYYCARVGYGGNFDYWGQGTLVTVSS VL: DIQMTQSPSSVSASVGDRLTIICRASQDINRWLAWYQQTPGNAPKLLIHSATSLQSGVPSRFSGSGSGTDFTLTINSLQPEDFATYYCQQADSFPLTFGGGTKVEIK | 1.25 | – | 1.25
